For data set [1] the following is noted: cited from earlier work.
Data set [2] in a line: pH, pKa and isoelectronic point of PuraMatrix. The format is physicochemical. Particulars: aqueous 1% PuraMatrix solution, in this study. From the text: Isoelectronic point (pI) is the pH at which a particular molecule carries no net electrical charge. PuraMarix® has four arginine and four aspartic acid. […] That means that there is no net electrical charge between around pH 3.9 and around pH 11.5, where the solubility of PuraMatrix® becomes low. Usually, aqueous PuraMatrix® solution has its pH level at 2.0-2.5. […] Although isotonic PuraMatrix® formulated in 10% sucrose solution has been used for cell culture experiments as shown in the current PuraMatrix® cell culture protocol, the pH of PuraMatrix® with 10% sucrose was also 2.2.

Take RADARADARADARADA [PuraMatrix®]: in data set [1] (aqueous PuraMatrix solution, usually), the pH level is reported as 2.0-2.5. In addition, in data set [1] (between around pH 3.9 and around pH 11.5), the solubility result is on record as “low”. The “pKa of aspartic acid in PuraMatrix” value in data set [1] is on record as 3.9. Further, the pH in data set [2] was found to be 2.2.

The values are drawn from patent US20180023049A1, “SYNTHETIC PEPTIDE HYDROGEL FORMULATIONS FOR USE AS EXTRACELLULAR MATRIX” (3-D MATRIX, LTD., priority 2015, published 2018).
